Experimental data reported in the RNAGym collection of RNA variant scans (doi:10.7554/elife.80360).

B1: HDV Ribozyme (parent)
chain: GGCCGGCAUGGUCCCAGCCUCCUCGCUGGCGCCGGCUGGGCAACAUUCCGAGGGGACCGUCCCCUCGGUAAUGGCGAAUGGGACCCA

Variants of: B1
Experiment: self-cleavage, relative activity (ratio to wild type); higher = more cleavage; co-transcriptional

Variant	self-cleavage
C22A C32A	0.0678
C22A C24A	0.188
C22A C24G	0
C22A C24U	0.0361
C22A G59C	0.361
C22U G38U	0.149
U23A A43G	0.516
U23A U72G	0.302
C22A A45G	0.225
C21U G59A	0.154
C22G G29A	0.0886
C22G G29C	0.0536
U23A U65A	0.778
U23C A71G	0.9
C22U U23C	0.68
U23G A77G	0.554
U23G U65G	0.674
C22G G68A	0.132
C22G G76A	0.0354
U23C G67C	0.969
C22U C32U	0.65
C22A U79G	0.0573
U23C C30A	0.369
U23C A70U	0.917

Variant	self-cleavage
U23G U72C	0.391
C21U G28C	0.0449
C22A U47G	0.232
U23A C26U	1.08
U23A C26A	1.23
U23C A43G	0.277
U23C A43C	0.465
C22U G68A	0.631
U23A C32G	0.253
U23A C32U	0.929
U23C U37C	1.15
U23C U37A	0.0536
C22G G52U	0.0314
C22G G52A	0.112
C22G A87G	0.106
C22U C86U	0.674
U23A C62U	0.966
U23A U37A	0.0997
U23A U37C	1.08
U23A G28C	0.142
U23A G28A	0
U23C G34C	0.172
C22A A43U	0.0437
U23C G82C	0.465

Variant	self-cleavage
U23A G54C	1.15
U23A G54A	1.01
U23A C84A	0.944
U23A G40A	1.14
U23C C86A	0.857
U23C C86U	0.6
C22G G80A	0.135
U23G C41G	0.597
C22U U47G	0.58
C22U G40U	0.394
C22U G40C	0.166
C22U G40A	0.643
C22G A42U	0.0639
C22U C63U	0.76
C21U G76U	0.542
C22A C57A	0.208
U23C G76A	1.22
U23C G76U	1.14
U23C U60A	0.877
U23C U60C	0.858
U23C G68A	0.87
U23C G68U	0.897
U23C A77G	0.587
U23C A77U	0.353

Variant	self-cleavage
C22A U60G	0.177
U23C G54C	0.673
U23G G54U	0.9
U23G G54A	0.928
C22G C33A	0
C22G C33U	0.0268
C22G C33G	0
U23C G40U	0.587
U23C G39A	0.519
C22G U23A	0.0941
C22G U23G	0
U23C A42G	0.227
C21U G29A	0.0683
C21U G29C	0.0773
U23G G39C	0.158
U23A C49U	1.13
C22G G40C	0.0665
C22G G40A	0
C22A A51C	0.341
C22U G76C	0.763
C22U C48U	0.727
U23G C26A	0.739
U23G U46G	0.356
C22A C41U	0.252

Variant	self-cleavage
C22A G38A	0.0608
C22A G38U	0.554
C22U G81A	0.0911
C22A G53C	0.157
C22A G53A	0.222
C21U G25C	0.119
U23C	0.987
U23A	0.985
U23G	0.731
U23C G38U	0.175
U23A A51U	0.923
C22G G35C	0.0978
C22G C84U	0.0563
C21U G67A	0.158
C22U A70C	0.656
U23G A83U	0.107
U23G A83C	0
U23G C66G	0.32
U23G C24G	0.16
C22A C48G	0.363
C22A C49U	0.338
C22G G31A	0.121
C22A G29U	0.128
U23G C64G	0.95

Variant	self-cleavage
C22U A43G	0.116
U23C G52C	1.01
U23A C58A	1.12
U23G C44U	0.325
C22U G73A	0.192
C22G A77C	0.0426
U23A C75G	0.116
U23A C75A	0.277
U23A G76U	0.941
C22A G40U	0.0978
C22A G40A	0.367
C22G G25A	0.0396
C22A U46G	0.172
U23C C44G	0.185
U23C C44A	0.462
C22U G55C	0.642
U23C G59A	1.19
C22U C64G	0.751
C21U G55C	0.18
C21U G55A	0.231
C21U U79A	0.0573
C22U U72C	0.193
C22G G39U	0.102
U23G G76A	0.895

Variant	self-cleavage
U23G U60C	0.831
C22A U69G	0.394
C22A U69C	0.393
C22A G34U	0.0536
C22G A83G	0.126
C22A U23C	0.0978
C22A U23G	0
U23G C75U	0.089
U23A A56G	1.02
U23A G59A	1.12
U23A G59U	1.09
U23A G59C	0.811
U23A A45C	0.344
U23A G80C	0.101
U23G G34A	0.0811
C22G U79A	0.0615
C22G G55C	0.109
C21U U23G	0.13
C21U U23C	0.175
C22A G81C	0.128
C24A	0.767
C22U G34U	0.145
C22G A45U	0.0415
